Test results taken from IntAct's records for PubMed 21209328.

B1: PEP-dependent dihydroxyacetone kinase, ADP-binding subunit DhaL (Escherichia coli (strain K12)), P76014 (parent)
chain: MSLSRTQIVNWLTRCGDIFSTESEYLTGLDREIGDADHGLNMNRGFSKVVEKLPAIADKDIGFILKNTGMTLLSSVGGASGPLFGTFFIRAAQATQARQSLTLEELYQMFRDGADGVISRGKAEPGDKTMCDVWVPVVESLRQSSEQNLSVPVALEAASSIAESAAQSTITMQARKGRASYLGERSIGHQDPGATSVMFMMQMLALAAKE
partner: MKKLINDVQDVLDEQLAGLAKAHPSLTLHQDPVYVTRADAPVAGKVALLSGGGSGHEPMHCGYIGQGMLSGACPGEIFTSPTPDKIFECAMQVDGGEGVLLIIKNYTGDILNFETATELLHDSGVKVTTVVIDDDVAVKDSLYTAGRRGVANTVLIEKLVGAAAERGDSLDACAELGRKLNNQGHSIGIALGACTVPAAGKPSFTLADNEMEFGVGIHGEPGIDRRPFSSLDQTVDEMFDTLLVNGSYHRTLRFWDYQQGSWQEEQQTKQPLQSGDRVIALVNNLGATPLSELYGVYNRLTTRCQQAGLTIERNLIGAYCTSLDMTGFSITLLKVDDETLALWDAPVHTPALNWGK

Variants of: B1
Conditions: with dhak_ecoli dhaK

Row | Variant | effect of a mutation on the interaction
1 | R178E | disrupting interaction strength
